Assay results: patent US20220362357A1, “Synergistic Combinations of Amino Acid Depletion Agent Sensitizers (AADAS) and Amino Acid Depletion Agents (AADA), and Therapeutic Methods of Use Thereof” (STICHTING RADBOUD UNIVERSITAIR MEDISCH CENTRUM, priority 2018, published 2022)

What was measured:
Assay in all cases: PDX ALL cells co-cultured on hTERT MSCs, ASNase x ibrutinib dilution matrix, microscopy
Type in all cases: cell-based, human
PDX m838 = conditions: m838 (3 d), ibrutinib B0=0 to B9=100
Procedure: (§1) After 2-4 months these mice developed full blown leukemia with an immunophenotype and genetic composition that in the large majority of cases is identical to the original material at the time of injection.
(§2) Briefly, hTERT immortalized MSCs were seeded in either a 384 wells format (microscopy) or a 96 wells format (7AAD staining) and allowed to settle for 24 hours prior to the addition of ALL xenografts. […] After 3 and 7 days of incubation, cell death was analyzed using microscopy using live cells staining or flowcytometry using 7AAD to discriminate between live or dead cells.

PDX m1095 = conditions: m1095 (3 d), ibrutinib B0=0 to B9=100
Procedure: as §1, §2

PDX m877 = conditions: m877 (3 d), ibrutinib B0=0 to B9=100
Procedure: as §1, §2

PDX m4206 = conditions: ibrutinib B0=0 to B9=100
Procedure: as §1, §2

PDX m3810 = conditions: ibrutinib B0=0 to B9=100
Procedure: as §1, §2

B1: ASNase: native E. coli ASNase (NCBI WP_000394140.1), used in the in vitro studies (protein, UniProt P00805 23-348, looked up)
L-asparaginase 2: LPNITILATGGTIAGGGDSATKSNYTVGKVGVENLVNAVPQLKDIANVKGEQVVNIGSQDMNDNVWLTLAKKINTDCDKTDGFVITHGTDTMEETAYFLDLTVKCDKPVVMVGAMRPSTSMSADGPFNLYNAVVTAADKASANRGVLVVMNDTVLDGRDVTKTNTTDVATFKSVNYGPLGYIHNGKIDYQRTPARKHTSDTPFDVSKLNELPKVGIVYNYANASDLPAKALVDAGYDGIVSAGVGNGNLYKSVFDTLATAAKTGTAVVRSSRVPTGATTQDAEVDDAKYGFVASGTLNPQKARVLLQLALTQTKDPQQIQQIFNQY
PDX m838; ASNase A5=1
  live cells by automated microscopy (table names no quantity): 2454
PDX m838; ASNase A6=3
  live cells by automated microscopy (table names no quantity): 3049
PDX m838; ASNase A7=10
  live cells by automated microscopy (table names no quantity): 2431
PDX m838; ASNase A8=32
  live cells by automated microscopy (table names no quantity): 175
PDX m838; ASNase A9 (A=100)
  live cells by automated microscopy (table names no quantity): 18
PDX m1095; ASNase A1=0.01
  live cells by automated microscopy (table names no quantity): 2935
PDX m1095; ASNase A2=0.03
  live cells by automated microscopy (table names no quantity): 2914
PDX m1095; ASNase A3=0.1
  live cells by automated microscopy (table names no quantity): 3089
PDX m1095; ASNase A4=0.3
  live cells by automated microscopy (table names no quantity): 3205
PDX m1095; ASNase A5=1
  live cells by automated microscopy (table names no quantity): 2579
PDX m1095; ASNase A6=3
  live cells by automated microscopy (table names no quantity): 549
PDX m1095; ASNase A7=10
  live cells by automated microscopy (table names no quantity): 2033
PDX m1095; ASNase A8=32
  live cells by automated microscopy (table names no quantity): 238
PDX m1095; ASNase A9 (A=100)
  live cells by automated microscopy (table names no quantity): 30
PDX m877; ASNase A1=0.01
  live cells by automated microscopy (table names no quantity): 5090
PDX m877; ASNase A2=0.03
  live cells by automated microscopy (table names no quantity): 4877
PDX m877; ASNase A3=0.1
  live cells by automated microscopy (table names no quantity): 4455
PDX m877; ASNase A4=0.3
  live cells by automated microscopy (table names no quantity): 4789
PDX m877; ASNase A5=1
  live cells by automated microscopy (table names no quantity): 5008
PDX m877; ASNase A6=3
  live cells by automated microscopy (table names no quantity): 5125
PDX m877; ASNase A7=10
  live cells by automated microscopy (table names no quantity): 4350
PDX m877; ASNase A8=32
  live cells by automated microscopy (table names no quantity): 1205
PDX m877; ASNase A9 (A=100)
  live cells by automated microscopy (table names no quantity): 2
PDX m4206; m4206 (3 d), ASNase A1=0.01
  live cells by automated microscopy (table names no quantity): 3112
PDX m4206; m4206 (3 d), ASNase A2=0.03
  live cells by automated microscopy (table names no quantity): 2484
PDX m4206; m4206 (3 d), ASNase A3=0.1
  live cells by automated microscopy (table names no quantity): 3106
PDX m4206; m4206 (3 d), ASNase A4=0.3
  live cells by automated microscopy (table names no quantity): 2323
PDX m4206; m4206 (3 d), ASNase A5=1
  live cells by automated microscopy (table names no quantity): 2141
PDX m4206; m4206 (3 d), ASNase A6=3
  live cells by automated microscopy (table names no quantity): 2304
PDX m4206; m4206 (3 d), ASNase A7=10
  live cells by automated microscopy (table names no quantity): 1979
PDX m4206; m4206 (3 d), ASNase A8=32
  live cells by automated microscopy (table names no quantity): 301
PDX m4206; m4206 (3 d), ASNase A9 (A=100)
  live cells by automated microscopy (table names no quantity): 69
PDX m4206; m4206 (7 d), ASNase A1=0.01
  live cells by automated microscopy (table names no quantity): 56
PDX m4206; m4206 (7 d), ASNase A2=0.03
  live cells by automated microscopy (table names no quantity): 52
PDX m4206; m4206 (7 d), ASNase A3=0.1
  live cells by automated microscopy (table names no quantity): 86
PDX m4206; m4206 (7 d), ASNase A4=0.3
  live cells by automated microscopy (table names no quantity): 37
PDX m4206; m4206 (7 d), ASNase A5=1
  live cells by automated microscopy (table names no quantity): 83
PDX m4206; m4206 (7 d), ASNase A6=3
  live cells by automated microscopy (table names no quantity): 87
PDX m4206; m4206 (7 d), ASNase A7=10
  live cells by automated microscopy (table names no quantity): 68
PDX m4206; m4206 (7 d), ASNase A8=32
  live cells by automated microscopy (table names no quantity): 24
PDX m4206; m4206 (7 d), ASNase A9 (A=100)
  live cells by automated microscopy (table names no quantity): 35
PDX m3810; m3810 (3 d), ASNase A1=0.01
  live cells by automated microscopy (table names no quantity): 1232
PDX m3810; m3810 (3 d), ASNase A2=0.03
  live cells by automated microscopy (table names no quantity): 2209
PDX m3810; m3810 (3 d), ASNase A3=0.1
  live cells by automated microscopy (table names no quantity): 1405
PDX m3810; m3810 (3 d), ASNase A4=0.3
  live cells by automated microscopy (table names no quantity): 1982
PDX m3810; m3810 (3 d), ASNase A5=1
  live cells by automated microscopy (table names no quantity): 1472
PDX m3810; m3810 (3 d), ASNase A6=3
  live cells by automated microscopy (table names no quantity): 1497
PDX m3810; m3810 (3 d), ASNase A7=10
  live cells by automated microscopy (table names no quantity): 1054
PDX m3810; m3810 (3 d), ASNase A8=32
  live cells by automated microscopy (table names no quantity): 268
PDX m3810; m3810 (3 d), ASNase A9 (A=100)
  live cells by automated microscopy (table names no quantity): 8
PDX m3810; m3810 (7 d), ASNase A1=0.01
  live cells by automated microscopy (table names no quantity): 1776
PDX m3810; m3810 (7 d), ASNase A2=0.03
  live cells by automated microscopy (table names no quantity): 1752
PDX m3810; m3810 (7 d), ASNase A3=0.1
  live cells by automated microscopy (table names no quantity): 1563
PDX m3810; m3810 (7 d), ASNase A4=0.3
  live cells by automated microscopy (table names no quantity): 1519
PDX m3810; m3810 (7 d), ASNase A5=1
  live cells by automated microscopy (table names no quantity): 1136
PDX m3810; m3810 (7 d), ASNase A6=3
  live cells by automated microscopy (table names no quantity): 1251
PDX m3810; m3810 (7 d), ASNase A7=10
  live cells by automated microscopy (table names no quantity): 686
PDX m3810; m3810 (7 d), ASNase A8=32
  live cells by automated microscopy (table names no quantity): 87
PDX m3810; m3810 (7 d), ASNase A9 (A=100)
  live cells by automated microscopy (table names no quantity): 4
